Tested on: Escherichia coli TOP10
Assay: shrunken log2 fold change of peptide-encoding DNA abundance (4.5 h post-induction vs induction); higher = less antimicrobial activity (less host growth inhibition)
Conditions: time post-induction: 4.5 h; library: site-saturation at positions 5, 18, 19, 20
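Further: peptides expressed intracellularly from a pBAD plasmid library in pooled LB shake-flask culture, induced with 0.3% L-arabinose, DNA abundance read by NGS, three biological replicates, DESeq2 with apeglm shrinkage.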

Sequence	shrunken log2 fold change
RRIRGRPPRLPRPRPRPRATPRP	1.72
RRIRCRPPRLPRPRPRPEDHPRP	-0.0393
RRIRNRPPRLPRPRPRPRGNPRP	0.26
RRIRPRPPRLPRPRPRPIGRPRP	-0.0114
RRIRVRPPRLPRPRPRPTTRPRP	0.293
RRIRWRPPRLPRPRPRPCWDPRP	0.0945
RRIRKRPPRLPRPRPRPAHKPRP	0.0404
RRIRWRPPRLPRPRPRPCPQPRP	-0.134
RRIRARPPRLPRPRPRPHLRPRP	0.325
RRIRNRPPRLPRPRPRPGRPPRP	0.123
RRIRARPPRLPRPRPRPEYMPRP	-0.276
RRIRFRPPRLPRPRPRPAPHPRP	0.442
RRIRMRPPRLPRPRPRPNWIPRP	-0.118
RRIRARPPRLPRPRPRPTPLPRP	0.601
RRIRFRPPRLPRPRPRPSCMPRP	-0.831
RRIRRRPPRLPRPRPRPPWFPRP	0.479
RRIRFRPPRLPRPRPRPRWQPRP	0.229
RRIRCRPPRLPRPRPRPCSPPRP	-0.241
RRIRHRPPRLPRPRPRPLGTPRP	-0.129
RRIRLRPPRLPRPRPRPYHMPRP	-0.146
RRIRGRPPRLPRPRPRPWTGPRP	-0.0411
RRIRPRPPRLPRPRPRPVIDPRP	-0.0426
RRIRTRPPRLPRPRPRPHWGPRP	0.229
RRIRIRPPRLPRPRPRPPGCPRP	0.354
RRIRFRPPRLPRPRPRPNHCPRP	-0.0425

Sequence	shrunken log2 fold change
RRIRLRPPRLPRPRPRPNEVPRP	-0.0062
RRIRSRPPRLPRPRPRPAYTPRP	0.0457
RRIRERPPRLPRPRPRPFHGPRP	-0.0459
RRIRQRPPRLPRPRPRPRMQPRP	-0.0113
RRIRDRPPRLPRPRPRPCDEPRP	-0.00174
RRIRPRPPRLPRPRPRPGHRPRP	0.0675
RRIRFRPPRLPRPRPRPPARPRP	0.694
RRIRLRPPRLPRPRPRPWRDPRP	-0.252
RRIRFRPPRLPRPRPRPVNSPRP	-0.154
RRIRARPPRLPRPRPRPMVMPRP	-0.00579
RRIRPRPPRLPRPRPRPLFRPRP	0.159
RRIRSRPPRLPRPRPRPEIPPRP	2.86
RRIRMRPPRLPRPRPRPNRQPRP	0.108
RRIRLRPPRLPRPRPRPAEGPRP	0.242
RRIRNRPPRLPRPRPRPANAPRP	0.259
RRIRYRPPRLPRPRPRPAFCPRP	-0.1
RRIRIRPPRLPRPRPRPDPCPRP	-0.224
RRIRYRPPRLPRPRPRPSRLPRP	-0.114
RRIRPRPPRLPRPRPRPFCWPRP	0.447
RRIRSRPPRLPRPRPRPKHWPRP	0.311
RRIRGRPPRLPRPRPRPQRPPRP	0.406
RRIRIRPPRLPRPRPRPWLFPRP	0.0545
RRIRGRPPRLPRPRPRPCYPPRP	0.0523
RRIRFRPPRLPRPRPRPASTPRP	-0.0365
RRIRLRPPRLPRPRPRPAYNPRP	-0.119

Sequence	shrunken log2 fold change
RRIRHRPPRLPRPRPRPSSVPRP	0.0608
RRIRGRPPRLPRPRPRPNPNPRP	0.215
RRIRIRPPRLPRPRPRPEVRPRP	-0.0584
RRIRWRPPRLPRPRPRPSHAPRP	-0.0866
RRIRTRPPRLPRPRPRPKTHPRP	0.29
RRIRVRPPRLPRPRPRPRFKPRP	0.107
RRIRVRPPRLPRPRPRPRAFPRP	0.294
RRIRPRPPRLPRPRPRPGTDPRP	0.119
RRIRDRPPRLPRPRPRPQAYPRP	0.18
RRIRQRPPRLPRPRPRPLCQPRP	-0.304
RRIRQRPPRLPRPRPRPFTTPRP	-0.0246
RRIRQRPPRLPRPRPRPNFQPRP	-0.198
RRIRFRPPRLPRPRPRPNEEPRP	-0.0458
RRIRPRPPRLPRPRPRPPDVPRP	0.274
RRIRHRPPRLPRPRPRPWAGPRP	-0.15
RRIRFRPPRLPRPRPRPQVAPRP	0.147
RRIRTRPPRLPRPRPRPGQCPRP	0.013
RRIRCRPPRLPRPRPRPVEFPRP	-0.05
RRIRMRPPRLPRPRPRPGNSPRP	-0.616
RRIRIRPPRLPRPRPRPRFCPRP	-0.00189
RRIRIRPPRLPRPRPRPQQKPRP	0.0242
RRIRTRPPRLPRPRPRPGAQPRP	0.283
RRIRFRPPRLPRPRPRPIEGPRP	0.0922
RRIRIRPPRLPRPRPRPRQSPRP	0.065
RRIRERPPRLPRPRPRPMDKPRP	-0.219

Sequence	shrunken log2 fold change
RRIRIRPPRLPRPRPRPRRVPRP	-0.0339
RRIRGRPPRLPRPRPRPGVQPRP	0.739
RRIRYRPPRLPRPRPRPWTQPRP	-0.343
RRIRNRPPRLPRPRPRPTTDPRP	-0.199
RRIRDRPPRLPRPRPRPTILPRP	0.242
RRIRTRPPRLPRPRPRPQWDPRP	-0.0974
RRIRCRPPRLPRPRPRPHQLPRP	-0.465
RRIRLRPPRLPRPRPRPAAPPRP	0.545
RRIRMRPPRLPRPRPRPDEHPRP	2.21
RRIRWRPPRLPRPRPRPVYMPRP	-0.476
RRIRYRPPRLPRPRPRPSPLPRP	-0.55
RRIRSRPPRLPRPRPRPLVEPRP	0.28
RRIRERPPRLPRPRPRPNDTPRP	-0.348
RRIRVRPPRLPRPRPRPAHAPRP	0.068
RRIRGRPPRLPRPRPRPTSTPRP	1.05
RRIRARPPRLPRPRPRPKPQPRP	0.533
RRIRPRPPRLPRPRPRPDEFPRP	-0.203
RRIRTRPPRLPRPRPRPMTQPRP	0.13
RRIRSRPPRLPRPRPRPNCMPRP	-0.0954
RRIRNRPPRLPRPRPRPTGNPRP	-0.104
RRIRDRPPRLPRPRPRPYQKPRP	0.0212
RRIRLRPPRLPRPRPRPPGSPRP	0.226
RRIRRRPPRLPRPRPRPPRCPRP	1.49
RRIRKRPPRLPRPRPRPWYCPRP	-0.339
RRIRMRPPRLPRPRPRPHWIPRP	-0.0869

Sequence	shrunken log2 fold change
RRIRNRPPRLPRPRPRPNHYPRP	-0.885
RRIRVRPPRLPRPRPRPCRFPRP	-0.464
RRIRSRPPRLPRPRPRPTFEPRP	0.0262
RRIRGRPPRLPRPRPRPVHSPRP	0.0124
RRIRIRPPRLPRPRPRPTCMPRP	-0.059
RRIRCRPPRLPRPRPRPNCGPRP	-0.281
RRIRRRPPRLPRPRPRPPMSPRP	0.142
RRIRLRPPRLPRPRPRPEGMPRP	0.194
RRIRDRPPRLPRPRPRPQGFPRP	-0.00674
RRIRFRPPRLPRPRPRPPPPPRP	1.58
RRIRVRPPRLPRPRPRPFNGPRP	-0.15
RRIRFRPPRLPRPRPRPHWTPRP	-0.301
RRIRIRPPRLPRPRPRPFMIPRP	-0.73
RRIRMRPPRLPRPRPRPDAQPRP	2.65
RRIRSRPPRLPRPRPRPNGIPRP	0.033
RRIRRRPPRLPRPRPRPDKRPRP	-0.0396
RRIRQRPPRLPRPRPRPHAQPRP	0.384
RRIRWRPPRLPRPRPRPRHDPRP	0.107
RRIRMRPPRLPRPRPRPTEYPRP	-0.289
RRIRTRPPRLPRPRPRPYAHPRP	-0.239
RRIRIRPPRLPRPRPRPDCKPRP	-0.477
RRIRCRPPRLPRPRPRPEWRPRP	0.391
RRIRSRPPRLPRPRPRPAMIPRP	0.365
RRIRGRPPRLPRPRPRPKDAPRP	0.432
RRIRQRPPRLPRPRPRPRMGPRP	-0.0719

Sequence	shrunken log2 fold change
RRIRHRPPRLPRPRPRPLSTPRP	-0.0859
RRIRYRPPRLPRPRPRPMFKPRP	-0.825
RRIRGRPPRLPRPRPRPSYHPRP	-0.299
RRIRMRPPRLPRPRPRPKMVPRP	2.27
RRIRIRPPRLPRPRPRPNKVPRP	-0.393
RRIRRRPPRLPRPRPRPATIPRP	-0.0623
RRIRYRPPRLPRPRPRPSVGPRP	-0.124
RRIRFRPPRLPRPRPRPNLSPRP	-0.259
RRIRLRPPRLPRPRPRPPCYPRP	0.00883
RRIRQRPPRLPRPRPRPPCLPRP	-0.192
RRIRWRPPRLPRPRPRPWMDPRP	-0.0803
RRIRKRPPRLPRPRPRPCLPPRP	0.0253
RRIRARPPRLPRPRPRPFIWPRP	0.00679
RRIRYRPPRLPRPRPRPRFDPRP	-0.51
RRIRHRPPRLPRPRPRPNFEPRP	0.00825
RRIRWRPPRLPRPRPRPRRVPRP	0.122
RRIRCRPPRLPRPRPRPYMPPRP	-0.404
RRIRLRPPRLPRPRPRPSHNPRP	-0.735
RRIRKRPPRLPRPRPRPWLGPRP	1.57
RRIRTRPPRLPRPRPRPPCCPRP	0.00432
RRIRQRPPRLPRPRPRPNHEPRP	-0.102
RRIRTRPPRLPRPRPRPHVNPRP	-0.0758
RRIRKRPPRLPRPRPRPAEYPRP	0.345
RRIRGRPPRLPRPRPRPPWAPRP	0.769
RRIRQRPPRLPRPRPRPNWFPRP	-0.151
